Experiments:
hiR2-FL-M534S-T7 = target: T1, hiR2-FL-M534S-T7 (human, UniProt Q6PJF5 1-856); assay: FACS, MEF-DKO cells, 3 µg/ml
T1 sequence: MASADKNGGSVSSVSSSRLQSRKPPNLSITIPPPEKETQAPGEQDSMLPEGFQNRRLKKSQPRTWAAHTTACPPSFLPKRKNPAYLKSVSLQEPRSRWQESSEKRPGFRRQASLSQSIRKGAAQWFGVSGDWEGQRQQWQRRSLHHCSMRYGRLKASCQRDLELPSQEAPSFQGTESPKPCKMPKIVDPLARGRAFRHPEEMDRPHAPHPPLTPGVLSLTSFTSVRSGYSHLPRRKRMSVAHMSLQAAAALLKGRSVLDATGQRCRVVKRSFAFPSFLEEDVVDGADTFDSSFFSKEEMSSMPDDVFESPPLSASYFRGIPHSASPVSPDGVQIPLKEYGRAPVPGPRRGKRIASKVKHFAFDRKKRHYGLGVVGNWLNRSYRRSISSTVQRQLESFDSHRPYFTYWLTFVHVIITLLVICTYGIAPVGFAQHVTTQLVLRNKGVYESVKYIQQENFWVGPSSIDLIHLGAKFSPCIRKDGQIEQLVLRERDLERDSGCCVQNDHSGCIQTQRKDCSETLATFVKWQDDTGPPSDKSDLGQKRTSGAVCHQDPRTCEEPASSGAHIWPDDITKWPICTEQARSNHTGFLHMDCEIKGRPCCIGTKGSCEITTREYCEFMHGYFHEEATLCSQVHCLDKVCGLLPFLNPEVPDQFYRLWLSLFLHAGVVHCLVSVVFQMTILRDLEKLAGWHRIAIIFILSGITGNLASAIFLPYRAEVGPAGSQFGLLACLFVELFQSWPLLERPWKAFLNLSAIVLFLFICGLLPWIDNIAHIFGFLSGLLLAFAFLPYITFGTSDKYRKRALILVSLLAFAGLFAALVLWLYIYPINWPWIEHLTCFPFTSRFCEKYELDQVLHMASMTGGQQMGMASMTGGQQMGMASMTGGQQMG

miR2-FL-WT-T7 = target: T2, miR2-FL-WT-T7 (mouse, UniProt Q80WQ6 1-827); assay: FACS, MEF-DKO-miR2-FL-WT-T7 cells
T2 construct: on MEF-DKO cells
T2 sequence: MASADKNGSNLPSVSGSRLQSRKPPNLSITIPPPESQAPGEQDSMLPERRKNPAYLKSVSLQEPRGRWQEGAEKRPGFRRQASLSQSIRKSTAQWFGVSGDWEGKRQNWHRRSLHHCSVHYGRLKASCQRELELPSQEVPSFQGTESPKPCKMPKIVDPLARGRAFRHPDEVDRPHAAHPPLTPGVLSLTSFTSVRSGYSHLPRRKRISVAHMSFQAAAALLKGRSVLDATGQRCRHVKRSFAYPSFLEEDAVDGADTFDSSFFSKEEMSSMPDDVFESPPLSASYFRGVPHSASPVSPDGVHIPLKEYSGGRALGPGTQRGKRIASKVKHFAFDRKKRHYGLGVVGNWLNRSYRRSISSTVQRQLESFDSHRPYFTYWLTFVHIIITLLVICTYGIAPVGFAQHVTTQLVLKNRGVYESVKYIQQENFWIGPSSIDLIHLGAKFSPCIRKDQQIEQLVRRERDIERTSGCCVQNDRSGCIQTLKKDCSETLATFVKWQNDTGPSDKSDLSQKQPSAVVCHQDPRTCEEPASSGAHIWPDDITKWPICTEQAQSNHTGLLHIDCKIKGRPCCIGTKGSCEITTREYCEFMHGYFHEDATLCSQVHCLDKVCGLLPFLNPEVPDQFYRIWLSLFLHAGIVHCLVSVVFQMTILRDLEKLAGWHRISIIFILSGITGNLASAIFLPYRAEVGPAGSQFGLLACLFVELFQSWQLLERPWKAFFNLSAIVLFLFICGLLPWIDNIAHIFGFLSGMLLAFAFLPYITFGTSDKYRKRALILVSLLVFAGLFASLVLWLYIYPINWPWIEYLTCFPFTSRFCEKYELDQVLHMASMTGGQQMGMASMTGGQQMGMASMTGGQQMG
Protocol: In brief, immortalized MEF-DKO-EV control cells, MEF-DKO-hiR2-FL-WT-T7 cells and MEF-DKO-miR2-FL-WT-T7 cells were harvested with 10 mM EDTA in PBS, washed and resuspended in FACS buffer (PBS, 3% FBS, 0.05% sodium azide), and seeded in Nunc U-bottom 96-well plates (Thermo Fisher Scientific, USA) at approximately 3×10⁵ cells per well. To pellet cells and remove supernatants, the plates were centrifuged at 1,500 rpm and 4° C. for 3 minutes. For primary staining, cells were resuspended in 100 μl per well of either FACS buffer alone (controls), mouse monoclonal anti-T7 IgG (Merck Millipore, USA) at 3 μg/ml FACS buffer or the purified antibodies 3, 5, 16, 22, 34, 42, 43, 44, 48, and 50 of the invention also at 3 μg/ml FACS buffer and incubated on ice for 1 hour. Afterwards, plates were centrifuged at 1,500 rpm and 4° C. for 3 minutes and washed twice with 200 μl per well of FACS buffer. For secondary staining, cells were spun down and resuspended in 100 μl per well of PE-conjugated goat anti-mouse IgG F(ab′)2 detection fragment (Dianova, Germany) diluted 1:100 in FACS buffer. Protected from light, the cell suspensions were incubated on ice for 1 hour. […] Finally, cells were resuspended in 150 μl per well of FACS buffer and analyzed using a BD Accuri™ C6 Plus flow cytometer (Becton Dickinson, Germany).

| Binder | loss of binding vs wild type (hiR2-FL-M534S-T7) [%] | binding result (miR2-FL-WT-T7) |
| --- | --- | --- |
| antibody 5 (antibody, V domains shown, mouse IgG, kappa light chain; also called clone #5; purified antibody 5) VH: QVTLKESGPGILQPSQTLSLTCSFSGFSLSTFGMGVGWIRQPSGKGLEWLAHIWWDDEKYYNSALKSRLTISKATSKNQAFLKIANVDTADTATYYCARISNYGSNYWYFNVWGTGTTVTVSS VL: QVVLTQSPALMSASPGEKVTMTCSAGSSVSCMYWYQQKPGSSPRVLIYDTSNLASGVPARFTGSGSGTSYSLTISRMEAEDAASYYCQQWNSYPLTFGAGTKLELK | ≥ 30 | – |
| antibody 48 (antibody, V domains shown, mouse IgG, kappa light chain; also called clone #48; purified antibody 48) VH: QVQLQQSGTELVRPGTSVKVSCKASGYAFTNYLIEWVKQRPGQGLEWIGVINPGSGFTKYNEKFKGKATLTADKSSSTVYMHLSSLTSEDSAVYFCARGLYRAMDYWGQGTSVTVSS VL: DIQMTQSPASQSASLGESVTITCLASQTIATWLAWYQQKPGKSPQLLIYGATTLADGVPSRFSGGGSGTKFSFKISSLQAEDFVSYYCQQLYSTPYTFGGGTKLEIK | – | no binding (tested: 3 µg/ml) |

From US20240287172A1 (SCIRHOM, published 2024)
